In patent US20090099029A1, “Methods and substrates for conducting assays” (Invitrogen Corporation, priority 2005, published 2009):

Test system: kinases of Table 6 on Myelin Basic Protein (MBP)
Assay: Kinase assay using MBP substrate, ProQ Diamond stain (Table 6)
Format: biochemical
Conditions: kinase printed on MBP-coated slide; 20 uM ATP, 30° C.; ProQ Diamond Microarray Stain; graded Strong/Weak/Negative
Method in brief: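 Reactions ran at 30° C. with 20 uM ATP, 4 mM MgCl2 and 5% DMSO in HEPES pH 7.5, inhibitor added or omitted. Kinases had been arrayed onto slide-bound dephosphorylated bovine MBP; phospho-signal read after ProQ Diamond staining.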

B1: SGK2 (protein)
chain: LPDHCYRMNSSPAGTPSPQPSRANGNINLGPSANPNAQPTDFDFLKVIGKGNYGKVLLAKRKSDGAFYAVKVLQKKSILKKKEQSHIMAERSVLLKNVRHPFLVGLRYSFQTPEKLYFVLDYVNGGELFFHLQRERRFLEPRARFYAAEVASAIGYLHSLNIIYRDLKPENILLDCQGHVVLTDFGLCKEGVEPEDTTSTFCGTPEYLAPEVLRKEPYDRAVDWWCLGAVLYEMLHGLPPFYSQDVSQMYENILHQPLQIPGGRTVAACDLLQSLLHKDQRQRLGSKADFLEIKNHVFFSPINWDDLYHKRLTPPFNPNVTGPADLKHFDPEFTQEAVSKSIGCTPDTVASSSGASSAFLGFDYAPEDDDILDC
modifications: left off: a dimerising Fc or GST
  MBP Kinase Activity: Weak

B2: RPS6KB1(p70S6K) (protein)
chain: MRRRRRRDGFYPAPDFRDREAEDMAGVFDIDLDQPEDAGSEDELEEGGQLNESMDHGGVGPYELGMEHCEKFEISETSVNRGPEKIRPECFELLRVLGKGGYGKVFQVRKVTGANTGKIFAMKVLKKAMIVRNAKDTAHTKAERNILEEVKHPFIVDLIYAFQTGGKLYLILEYLSGGELFMQLEREGIFMEDTACFYLAEISMALGHLHQKGIIYRDLKPENIMLNHQGHVKLTDFGLCKESIHDGTVTHTFCGTIEYMAPEILMRSGHNRAVDWWSLGALMYDMLTGAPPFTGENRKKTIDKILKCKLNLPPYLTQEARDLLKKLLKRNAASRLGAGPGDAGEVQAHPFFRHINWEELLARKVEPPFKPLLQSEEDVSQFDSKFTRQTPVDSPDDSTLSESANQVFLGFEYVAPSVLES
modifications: left off: a dimerising Fc or GST
  MBP Kinase Activity: Negative

B3: RPS6KB2(p70S6K2) (protein)
chain: MAAVFDLDLETEEGSEGEGEPELSPADACPLAELRAAGLEPVGHYEEVELTETSVNVGPERIGPHCFELLRVLGKGGYGKVFQVRKVQGTNLGKIYAMKVLRKAKIVRNAKDTAHTRAERNILESVKHPFIVELAYAFQTGGKLYLILECLSGGELFTHLEREGIFLEDTACFYLAEITLALGHLHSQGIIYRDLKPENIMLSSQGHIKLTDFGLCKESIHEGAVTHTFCGTIEYMAPEILVRSGHNRAVDWWSLGALMYDMLTGSPPFTAENRKKTMDKIIRGKLALPPYLTPDARDLVKKFLKRNPSQRIGGGPGDAADVQRHPFFRHMNWDDLLAWRVDPPFRPCLQSEEDVSQFDTRFTRQTPVDSPDDTALSESANQAFLGFTYVAPSVLDSIKEGFSFQPKLRSPRRLNSSPRAPVSPLKFSPFEGFRPSPSLPEPTELPLPPLLPPPPPSTTAPLPIRPPSGTKKSKRGRGRPGR
modifications: left off: a dimerising Fc or GST
  MBP Kinase Activity: Negative

B4: RPS6KA4(MSK2) (protein)
chain: MGDEDDDESCAVELRITEANLTGHEEKVSVENFELLKVLGTGAYGKVFLVRKAGGHDAGKLYAMKVLRKAALVQRAKTQEHTRTERSVLELVRQAPFLVTLHYAFQTDAKLHLILDYVSGGEMFTHLYQRQYFKEAEVRVYGGEIVLALEHLHKLGIIYRDLKLENVLLDSEGHIVLTDFGLSKEFLTEEKERTFSFCGTIEYMAPEIIRSKTGHGKAVDWWSLGILLFELLTGASPFTLEGERNTQAEVSRRILKCSPPFPPRIGPVAQDLLQRLLCKDPKKRLGAGPQGAQEVRNHPFFQGLDWVALAARKIPAPFRPQIRSELDVGNFAEEFTRLEPVYSPPGSPPPGDPRIFQGYSFVAPSILFDHNNAVMTDGLEAPGAGDRPGRAAVARSAMMQDSPFFQQYELDLREPALGQGSFSVCRRCRQRQSGQEFAVKILSRRLEANTQREVAALRLCQSHPNVVNLHEVHHDQLHTYLVLELLRGGELLEHIRKKRHFSESEASQILRSLVSAVSFMHEEAGVVHRDLKPENILYADDTPGAPVKIIDFGFARLRPQSPGVPMQTPCFTLQYAAPELLAQQGYDESCDLWSLGVILYMMLSGQVPFQGASGQGGQSQAAEIMCKIREGRFSLDGEAWQGVSEEAKELVRGLLTVDPAKRLKLEGLRGSSWLQDGSARSSPPLRTPDVLESSGPAVRSGLNATFMAFNRGKREGFFLKSVENAPLAKRRKQKLRSATASRRGSPAPANPGRAPVASKGAPRRANGPLPPS
modifications: left off: a dimerising Fc or GST
  MBP Kinase Activity: Weak

B5: SGK (protein, UniProt O00141 1-431, looked up)
Serine/threonine-protein …: MTVKTEAAKGTLTYSRMRGMVAILIAFMKQRRMGLNDFIQKIANNSYACKHPEVQSILKISQPQEPELMNANPSPPPSPSQQINLGPSSNPHAKPSDFHFLKVIGKGSFGKVLLARHKAEEVFYAVKVLQKKAILKKKEEKHIMSERNVLLKNVKHPFLVGLHFSFQTADKLYFVLDYINGGELFYHLQRERCFLEPRARFYAAEIASALGYLHSLNIVYRDLKPENILLDSQGHIVLTDFGLCKENIEHNSTTSTFCGTPEYLAPEVLHKQPYDRTVDWWCLGAVLYEMLYGLPPFYSRNTAEMYDNILNKPLQLKPNITNSARHLLEGLLQKDRTKRLGAKDDFMEIKSHVFFSLINWDDLINKKITPPFNPNVSGPNDLRHFDPEFTEEPVPNSIGKSPDSVLVTASVKEAAEAFLGFSYAPPTDSFL
  MBP Kinase Activity: Strong

B6: EPHB4 (protein)
chain: LCLRKQSNGREAEYSDKHGQYLIGHGTKVYIDPFTYEDPNEAVREFAKEIDVSYVKIEEVIGAGEFGEVCRGRLKAPGKKESCVAIKTLKGGYTERQRREFLSEASIMGQFEHPNIIRLEGVVTNSMPVMILTEFMENGALDSFLRLNDGQFTVIQLVGMLRGIASGMRYLAEMSYVHRDLAARNILVNSNLVCKVSDFGLSRFLEENSSDPTYTSSLGGKIPIRWTAPEAIAFRKFTSASDAWSYGIVMWEVMSFGERPYWDMSNQDVINAIEQDYRLPPPPDCPTSLHQLMLDCWQKDRNARPRFPQVVSALDKMIRNPASLKIVARENGGASHPLLDQRQPHYSAFGSVGEWLRAIKMGRYEESFAAAGFGSFELVSQISAEDLLRIGVTLAGHQKKILASVQHMKSQAKPGTPGGTGGPAPQY
modifications: left off: small tags and cut ends
  MBP Kinase Activity: Strong

B7: ROCK2 (protein)
chain: MSRPPPTGKMPGAPETAPGDGAGASRQRKLEALIRDPRSPINVESLLDGLNSLVLDLDFPALRKNKNIDNFLNRYEKIVKKIRGLQMKAEDYDVVKVIGRGAFGEVQLVRHKASQKVYAMKLLSKFEMIKRSDSAFFWEERDIMAFANSPWVVQLFYAFQDDRYLYMVMEYMPGGDLVNLMSNYDVPEKWAKFYTAEVVLALDAIHSMGLIHRDVKPDNMLLDKHGHLKLADFGTCMKMDETGMVHCDTAVGTPDYISPEVLKSQGGDGFYGRECDWWSVGVFLYEMLVGDTPFYADSLVGTYSKIMDHKNSLCFPEDAEISKHAKNLICAFLTDREVRLGRNGVEEIRQHPFFKNDQWHWDNIRETAAPVVPELSSDIDSSNFDDIEDDKGDVETFPIPKAFVGNQLPFIGFTYYRENLLLSDSPSCRETDSIQSRKNEESQEIQKKLYTLEEHLSNEMQAKEELEQKCKSVNTRLEKTAKELEEEITLRKSVESALRQLEREKALLQHKNAEYQRKADHEADKKRNLENDVNSLKDQLEDLKKRNQNSQI
modifications: left off: a dimerising Fc or GST
  MBP Kinase Activity: Strong

B8: RPS6KA2(RSK3) (protein)
chain: MDLSMKKFAVRRFFSVYLRRKSRSKSSSLSRLEEEGVVKEIDISHHVKEGFEKADPSQFELLKVLGQGSYGKVFLVRKVKGSDAGQLYAMKVLKKATLKVRDRVRSKMERDILAEVNHPFIVKLHYAFQTEGKLYLILDFLRGGDLFTRLSKEVMFTEEDVKFYLAELALALDHLHSLGIIYRDLKPENILLDEEGHIKITDFGLSKEAIDHDKRAYSFCGTIEYMAPEVVNRRGHTQSADWWSFGVLMFEMLTGSLPFQGKDRKETMALILKAKLGMPQFLSGEAQSLLRALFKRNPCNRLGAGIDGVEEIKRHPFFVTIDWNTLYRKEIKPPFKPAVGRPEDTFHFDPEFTARTPTDSPGVPPSANAHHLFRGFSFVASSLIQEPSQQDLHKVPVHPIVQQLHGNNIHFTDGYEIKEDIGVGSYSVCKRCVHKATDTEYAVKIIDKSKRDPSEEIEILLRYGQHPNIITLKDVYDDGKFVYLVMELMRGGELLDRILRQRYFSEREASDVLCTITKTMDYLHSQGVVHRDLKPSNILYRDESGSPESIRVCDFGFAKQLRAGNGLLMTPCYTANFVAPEVLKRQGYDAACDIWSLGILLYTMLAGFTPFANGPDDTPEEILARIGSGKYALSGGNWDSISDAAKDVVSKMLHVDPHQRLTAMQVLKHPWVVNREYLSPNQLSRQDVHLVKGAMAATYFALNRTPQAPRLEPVLSSNLAQRRGMKRLTSTRL
modifications: left off: small tags and cut ends
  MBP Kinase Activity: Negative

B9: RPS6KA1(RSK1) (protein)
chain: MPLAQLKEPWPLMELVPLDPENGQTSGEEAGLQPSKDEGVLKEISITHHVKAGSEKADPSHFELLKVLGQGSFGKVFLVRKVTRPDSGHLYAMKVLKKATLKVRDRVRTKMERDILADVNHPFVVKLHYAFQTEGKLYLILDFLRGGDLFTRLSKEVMFTEEDVKFYLAELALGLDHLHSLGIIYRDLKPENILLDEEGHIKLTDFGLSKEAIDHEKKAYSFCGTVEYMAPEVVNRQGHSHSADWWSYGVLMFEMLTGSLPFQGKDRKETMTLILKAKLGMPQFLSTEAQSLLRALFKRNPANRLGSGPDGAEEIKRHVFYSTIDWNKLYRREIKPPFKPAVAQPDDTFYFDTEFTSRTPKDSPGIPPSAGAHQLFRGFSFVATGLMEDDGKPRAPQAPLHSVVQQLHGKNLVFSDGYVVKETIGVGSYSECKRCVHKATNMEYAVKVIDKSKRDPSEEIEILLRYGQHPNIITLKDVYDDGKHVYLVTELMRGGELLDKILRQKFFSEREASFVLHTIGKTVEYLHSQGVVHRDLKPSNILYVDESGNPECLRICDFGFAKQLRAENGLLMTPCYTANFVAPEVLKRQGYDEGCDIWSLGILLYTMLAGYTPFANGPSDTPEEILTRIGSGKFTLSGGNWNTVSETAKDLVSKMLHVDPHQRLTAKQVLQHPWVTQKDKLPQSQLSHQDLQLVKGAMAATYSALNSSKPTPQLKPIESSILAQRRVRKLPSTTL
modifications: left off: small tags and cut ends
  MBP Kinase Activity: Strong
